1 substance from patent publication US20130280735A1 can be followed below.

The assay concerns the target ICAM-1 (COS cell transfectants) (UniProt P05362). The assay can be described thus: FACS of COS transfectants, one transfection out of at least five attempts.
Sequence of UniProt P05362 (P05362 28-532 limits assumed): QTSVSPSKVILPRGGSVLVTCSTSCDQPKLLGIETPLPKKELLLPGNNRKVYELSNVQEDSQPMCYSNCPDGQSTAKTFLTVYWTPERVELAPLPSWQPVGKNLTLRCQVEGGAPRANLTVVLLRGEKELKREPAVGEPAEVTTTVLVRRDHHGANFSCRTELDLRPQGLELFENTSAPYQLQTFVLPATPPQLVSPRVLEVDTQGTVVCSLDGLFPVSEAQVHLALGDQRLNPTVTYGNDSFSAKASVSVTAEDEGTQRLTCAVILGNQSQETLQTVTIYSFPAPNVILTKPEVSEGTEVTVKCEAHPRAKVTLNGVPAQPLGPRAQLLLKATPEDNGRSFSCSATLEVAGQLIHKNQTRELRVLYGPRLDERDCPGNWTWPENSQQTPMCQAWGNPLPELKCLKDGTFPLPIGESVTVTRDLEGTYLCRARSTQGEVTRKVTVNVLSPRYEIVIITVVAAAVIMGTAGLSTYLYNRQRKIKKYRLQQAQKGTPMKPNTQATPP

For the substance “Fc-CD33Rg (from UniProt P20138 18-259) (Fc fusion)”, the % binding turned out to be 36%.
